B1: Catenin alpha-1 (Mus musculus), P26231 (parent)
chain: MTAVHAGNINFKWDPKSLEIRTLAVERLLEPLVTQVTTLVNTNSKGPSNKKRGRSKKAHVLAASVEQATENFLEKGDKIAKESQFLKEELVVAVEDVRKQGDLMKSAAGEFADDPCSSVKRGNMVRAARALLSAVTRLLILADMADVYKLLVQLKVVEDGILKLRNAGNEQDLGIQYKALKPEVDKLNIMAAKRQQELKDVGNRDQMAAARGILQKNVPILYTASQACLQHPDVAAYKANRDLIYKQLQQAVTGISNAAQATASDDAAQHQGGSGGELAYALNNFDKQIIVDPLSFSEERFRPSLEERLESIISGAALMADSSCTRDDRRERIVAECNAVRQALQDLLSEYMGNAGRKERSDALNSAIDKMTKKTRDLRRQLRKAVMDHVSDSFLETNVPLLVLIEAAKNGNEKEVKEYAQVFREHANKLIEVANLACSISNNEEGVKLVRMSASQLEALCPQVINAALALAAKPQSKLAQENMDLFKEQWEKQVRVLTDAVDDITSIDDFLAVSENHILEDVNKCVIALQEKDVDGLDRTAGAIRGRAARVIHVVTSEMDNYEPGVYTEKVLEATKLLSNTVMPRFTEQVEAAVEALSSDPAQPMDENEFIDASRLVYDGIRDIRKAVLMIRTPEELDDSDFETEDFDVRSRTSVQTEDDQLIAGQSARAIMAQLPQEQKAKIAEQVASFQEEKSKLDAEVSKWDDSGNDIIVLAKQMCMIMMEMTDFTRGKGPLKNTSDVISAAKKIAEAGSRMDKLGRTIADHCPDSACKQDLLAYLQRIALYCHQLNICSKVKAEVQNLGGELVVSGVDSAMSLIQAAKNLMNAVVQTVKASYVASTKYQKSQGMASLNLPAVSWKMKAPEKKPLVKREKQDETQTKIKRASQKKHVNPVQALSEFKAMDSI

Variants of: B1
Settings: with ctnb1_human CTNNB1, P35222
ctnb1_human CTNNB1, P35222, sequence (P35222 whole entry): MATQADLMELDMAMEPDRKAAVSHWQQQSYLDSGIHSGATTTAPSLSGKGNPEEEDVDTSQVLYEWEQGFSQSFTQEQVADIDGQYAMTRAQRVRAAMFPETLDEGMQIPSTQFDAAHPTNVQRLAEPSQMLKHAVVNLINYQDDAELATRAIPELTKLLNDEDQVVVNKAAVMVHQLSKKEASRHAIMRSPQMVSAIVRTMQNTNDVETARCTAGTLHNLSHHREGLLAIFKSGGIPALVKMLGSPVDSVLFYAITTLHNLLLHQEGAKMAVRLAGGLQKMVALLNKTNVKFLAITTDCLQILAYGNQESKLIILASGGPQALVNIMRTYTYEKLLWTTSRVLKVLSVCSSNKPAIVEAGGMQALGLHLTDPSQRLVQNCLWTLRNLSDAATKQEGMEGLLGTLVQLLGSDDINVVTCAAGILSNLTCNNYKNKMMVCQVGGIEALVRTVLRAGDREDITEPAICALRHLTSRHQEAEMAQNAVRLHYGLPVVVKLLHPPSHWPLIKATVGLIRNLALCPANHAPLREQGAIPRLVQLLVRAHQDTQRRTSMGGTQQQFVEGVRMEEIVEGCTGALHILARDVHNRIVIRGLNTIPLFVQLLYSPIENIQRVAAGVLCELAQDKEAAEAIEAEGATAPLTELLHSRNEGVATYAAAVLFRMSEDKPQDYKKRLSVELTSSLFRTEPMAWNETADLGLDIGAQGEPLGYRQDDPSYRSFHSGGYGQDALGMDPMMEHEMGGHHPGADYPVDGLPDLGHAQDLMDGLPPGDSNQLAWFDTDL

Row | Variant | effect of a mutation on the interaction
1 | R137A | decreasing interaction
2 | L131A | decreasing interaction
3 | L132A | decreasing interaction
4 | V135A | decreasing interaction
5 | R129A | increasing interaction
6 | L141A | decreasing interaction
7 | S133A | increasing interaction
8 | L139A | decreasing interaction
9 | A142S | decreasing interaction
10 | T136A | increasing interaction
11 | R126A | increasing interaction
12 | L138A | decreasing interaction
13 | V125A | decreasing interaction
